Reference: PMC10531346, “Structural Similarities and Overlapping Activities among Dihydroflavonol 4-Reductase, Flavanone 4-Reductase, and Anthocyanidin Reductase Offer Metabolic Flexibility in the Flavonoid Pathway” (International Journal of Molecular Sciences, 2023)
Like-named read-outs stand apart in the source and are kept apart here.

Tests used:
SbFNR1 [1] = target: T1, SbFNR1 (Sorghum bicolor, UniProt C5YGL7); experiment: SbFNR1 activity assay (dihydroflavonols, flavanones, anthocyanidins); format: biochemical; settings: anthocyanidin reduction
SbFNR2 = SbFNR2 activity assay (dihydroflavonols, flavanones, anthocyanidins); format: biochemical, Sorghum bicolor; settings: anthocyanidin reduction
PvDFRa [2] = target: T2, PvDFRa (Panicum virgatum, UniProt A0A8T0SQV2); experiment: PvDFRa activity against anthocyanidins (ANR activity); format: biochemical; settings: anthocyanidin reduction
Procedure: (§1) To measure any overlapping specificity among FNR, DFR, and ANR for anthocyanidins, their activity against cyanidin, pelargonidin, and delphinidin were assayed.
(§2) LC-MS was used to analyze the various flavonoids using a Waters Xevo TQ-MS mass spectrometer interfaced with a Waters Acquity UPLC. […] The chromatographic conditions used were based on. The mobile phase used was a binary gradient of water with 0.1% (v/v) formic acid (Solvent A) and methanol with 0.1% formic acid (Solvent B). The solvent flow rate was 0.2 mL min^-1. and the initial solvent composition was 20% B/80% A and was constant for the first minute following sample injection. Gradient elution was accomplished by increasing the ratio of solvent B to solvent A from 20:80 to 65:35 over 10 min. using a linear gradient, and then increased to 100:0 over the next 4 min. The composition was maintained at 100% B for 5 min., returned to 80%A/20%B over the next 3 min., and held at that ratio for the next 3 min. […]
(§3) Appropriate daughter ions to be used for multiple reaction monitoring (MRM) of (-)-epicatechin were identified by infusing standard and recording spectra. The optimum cone voltage and collision energy of epicatechin were also determined in these infusion experiments. […]

SbDFR3 = SbDFR3 (Sorghum bicolor, UniProt C5XVF8); experiment: SbDFR3 activity against anthocyanidins (ANR activity); format: biochemical; settings: anthocyanidin reduction
Procedure: as §1, §2, §3

PvDFRa [3] = target: T2, PvDFRa; format: biochemical
Procedure: The referenced Vmax and Km values were used to make a nonlinear regression. […] Five µL of the reaction was injected into a reversed-phase HPLC column XBridge Peptide BEH C18 (Waters, Milford, MA, USA). Acetonitrile:water was used as the mobile phase, using a gradient in the concentration of acetonitrile from 5% (v/v) to 100%.

PvDFRa WT = PvDFRa WT (Panicum virgatum, UniProt A0A8T0SQV2); experiment: Enzyme kinetic assay, wild-type PvDFRa; format: biochemical; settings: NADH utilized instead of NADPH
Procedure: Kinetic Assays of PvDFRa, SbDFR3, mutant PvDFRa, and SbFNRs: DFR was purified to the same purity as used in crystallization. Enzymatic assay followed the methodology previously reported with small changes. A solution of 0.1 M potassium phosphate at pH 7.0 was utilized, and substrate concentration was varied from 5 µM to 800 µM. The reaction was initiated with 0.05 mg enzyme in a total reaction volume of 200 µL. […] The reaction proceeded for 15 min. at 25 °C and was terminated by the addition of 600 µL 95:5 (v/v) n-butanol:HCl. […] The reactions were centrifuged for 15 min. at 14,000× g and the supernatant was used to determine product concentrations with a GENESYS™ 10S UV-Vis Spectrophotometer (Thermo Scientific, Waltham, MA, USA). The absorbances of cyanidin delphinidin and pelargonidin were measured at 550, 550, and 528 nm, respectively. The concentrations were determined based on calibrations with reference compounds (Figure S12). […] Data analysis was conducted utilizing GraphPad Prism 8.0.2 using linear regression to model the appropriate model. Error in each data point is shown utilizing the standard deviation.

PvDFRa [4] = target: T2, PvDFRa; experiment: Isothermal titration calorimetry, PvDFRa; format: binding; settings: ITC
Procedure: In order to obtain thermodynamic parameters for the association, isothermal titration calorimetry (ITC) for PvDFRa was performed (Figure S8, Table 2).
Isothermal Titration Calorimetry: Purified PvDFR was dialyzed to a buffer containing 50 mM Bis-Tris, 50 mM Tricine (pH 6.5), 200 mM NaCl and 2.5% (v/v) glycerol. Substrates were dissolved in the same buffer used for enzyme dialysis. Analysis was conducted utilizing a Microcal ITC 200 (Malvern). […] A total of 22 injections were made, each with a volume of 2 uL. Data analysis was conducted utilizing Origin Software 7 and modeled to the appropriate nonlinear regression.

SbFNR1 [5] = target: T1, SbFNR1; experiment: Isothermal titration calorimetry, SbFNR1; format: binding; settings: ITC
[6] = tested on: O=C1c2c(O)cc(O)cc2OC(c2ccc(O)c(O)c2)[C@H]1O; experiment: purified protein, by the assay type; settings: other: NADPH 2 mM
[7] = tested on: O=C1c2c(O)cc(O)cc2O[C@H](c2cc(O)c(O)c(O)c2)[C@H]1O; experiment: purified protein, by the assay type; settings: other: NADPH 2 mM
[8] = tested on: O=C1c2c(O)cc(O)cc2O[C@H](c2ccc(O)cc2)[C@H]1O; experiment: purified protein, by the assay type; settings: other: NADPH 2 mM
[9] = tested on: O=C1C[C@@H](c2ccc(O)cc2)Oc2cc(O)cc(O)c21; experiment: purified protein, by the assay type; settings: other: NADPH 2 mM

Oc1ccc(-c2[o+]c3cc(O)cc(O)c3cc2O)cc1 [pelargonidin]
efficiency relative to the activity of SbANR (SbFNR1 [1]): 2.1% | efficiency relative to the activity of SbANR (SbFNR2): 42.7% | activity as % of the activity of SbANR (PvDFRa [2]): 13.8% | activity as % of the activity of SbANR (SbDFR3): 2.3%

O=c1c(O)c(-c2ccc(O)c(O)c2)oc2cc(O)cc(O)c12 [quercetin]
substrate of PvDFRa or not (PvDFRa [3]; 500 µM quercetin, 2 mM NADPH, 30 min, HPLC): not a substrate | type of inhibition of PvDFRa (PvDFRa [3]; DHM as substrate): noncompetitive inhibition | Vmax (PvDFRa [3]; DHM as substrate, 75 μM quercetin): 4.193 min⁻¹ | Vmax (PvDFRa [3]; DHM as substrate, 150 μM quercetin): 3.545 min⁻¹

NADH
enzyme efficiency with NADH relative to NADPH (PvDFRa WT): 60.55%

NADP^+
NADP^+-binding affinity relative to affinity for DHQ (PvDFRa [4]): roughly 100 times | ∆H (PvDFRa [4]; 298 K): -9.41 ± 0.15 kcal/mol | ∆S (PvDFRa [4]; 298 K): −0.226 Cal mol^−1 K^−1 | ∆H (SbFNR1 [5]): -1.12 ± 0.72 kcal/mol | ∆S (SbFNR1 [5]): −15.4 Cal mol^−1 K^−1

PvDFRa Q242A (Panicum virgatum; Q242A)
Km ([6]; pH 7.0): 156.8 ± 121.41 µM | kcat ([6]; pH 7.0): 0.0428 s⁻¹ | kcat/Km ([6]; pH 7.0): 273 M⁻¹ s⁻¹ | Km ([7]; pH 7.0): 119.2 ± 87.86 µM | kcat ([7]; pH 7.0): 0.0379 s⁻¹ | kcat/Km ([7]; pH 7.0): 318 M⁻¹ s⁻¹ | Km ([8]; pH 7.0): 74.59 ± 62.70 µM | kcat ([8]; pH 7.0): 0.00783 s⁻¹ | kcat/Km ([8]; pH 7.0): 105 M⁻¹ s⁻¹

PvDFRa T143S (Panicum virgatum; T143S)
Km ([6]; pH 7.0): 19.04 ± 11.21 µM | kcat ([6]; pH 7.0): 0.0293 s⁻¹ | kcat/Km ([6]; pH 7.0): 1540 M⁻¹ s⁻¹ | Km ([7]; pH 7.0): 7.409 ± 0.2465 µM | kcat ([7]; pH 7.0): 0.0176 s⁻¹ | kcat/Km ([7]; pH 7.0): 2380 M⁻¹ s⁻¹ | Km ([8]; pH 7.0): 137.7 ± 36.00 µM | kcat ([8]; pH 7.0): 0.00956 s⁻¹ | kcat/Km ([8]; pH 7.0): 69.3 M⁻¹ s⁻¹

PvDFRa WT (Panicum virgatum)
Km ([9]; pH 7.0, 25 °C, 25.0 °C): 407.6 ± 223.6 µM | kcat ([9]; pH 7.0, 25 °C, 25.0 °C): 0.0592 s⁻¹ | kcat/Km ([9]; pH 7.0, 25 °C, 25.0 °C): 145 M⁻¹ s⁻¹ | Km ([6]; pH 7.0, 25 °C, 25.0 °C): 128.6 ± 14.3 µM | kcat ([6]; pH 7.0, 25 °C, 25.0 °C): 0.0559 s⁻¹ | kcat/Km ([6]; pH 7.0, 25 °C, 25.0 °C): 435 M⁻¹ s⁻¹ | Km ([7]; pH 7.0, 25 °C, 25.0 °C): 150.0 ± 56.9 µM | kcat ([7]; pH 7.0, 25 °C, 25.0 °C): 0.0377 s⁻¹ | kcat/Km ([7]; pH 7.0, 25 °C, 25.0 °C): 251 M⁻¹ s⁻¹ | kcat ([8]; pH 7.0, 25 °C, 25.0 °C): 0.0121 s⁻¹ | kcat/Km ([8]; pH 7.0, 25 °C, 25.0 °C): 63.2 M⁻¹ s⁻¹

SbDFR3 (Sorghum bicolor)
Km ([9]; pH 7.0): 118.2 ± 14.92 µM | kcat ([9]; pH 7.0): 0.0347 ± 0.00145 s⁻¹ | kcat/Km ([9]; pH 7.0): 294 M⁻¹ s⁻¹ | Km ([6]; pH 7.0): 166.4 ± 28.8 µM | kcat ([6]; pH 7.0): 0.0633 s⁻¹ | kcat/Km ([6]; pH 7.0): 380 M⁻¹ s⁻¹ | Km ([7]; pH 7.0): 118.5 ± 0.2885 µM | kcat ([7]; pH 7.0): 0.0773 s⁻¹ | kcat/Km ([7]; pH 7.0): 653 M⁻¹ s⁻¹
